The series deals with T1, CasEnd-10 (synthetic construct).
T1 chain: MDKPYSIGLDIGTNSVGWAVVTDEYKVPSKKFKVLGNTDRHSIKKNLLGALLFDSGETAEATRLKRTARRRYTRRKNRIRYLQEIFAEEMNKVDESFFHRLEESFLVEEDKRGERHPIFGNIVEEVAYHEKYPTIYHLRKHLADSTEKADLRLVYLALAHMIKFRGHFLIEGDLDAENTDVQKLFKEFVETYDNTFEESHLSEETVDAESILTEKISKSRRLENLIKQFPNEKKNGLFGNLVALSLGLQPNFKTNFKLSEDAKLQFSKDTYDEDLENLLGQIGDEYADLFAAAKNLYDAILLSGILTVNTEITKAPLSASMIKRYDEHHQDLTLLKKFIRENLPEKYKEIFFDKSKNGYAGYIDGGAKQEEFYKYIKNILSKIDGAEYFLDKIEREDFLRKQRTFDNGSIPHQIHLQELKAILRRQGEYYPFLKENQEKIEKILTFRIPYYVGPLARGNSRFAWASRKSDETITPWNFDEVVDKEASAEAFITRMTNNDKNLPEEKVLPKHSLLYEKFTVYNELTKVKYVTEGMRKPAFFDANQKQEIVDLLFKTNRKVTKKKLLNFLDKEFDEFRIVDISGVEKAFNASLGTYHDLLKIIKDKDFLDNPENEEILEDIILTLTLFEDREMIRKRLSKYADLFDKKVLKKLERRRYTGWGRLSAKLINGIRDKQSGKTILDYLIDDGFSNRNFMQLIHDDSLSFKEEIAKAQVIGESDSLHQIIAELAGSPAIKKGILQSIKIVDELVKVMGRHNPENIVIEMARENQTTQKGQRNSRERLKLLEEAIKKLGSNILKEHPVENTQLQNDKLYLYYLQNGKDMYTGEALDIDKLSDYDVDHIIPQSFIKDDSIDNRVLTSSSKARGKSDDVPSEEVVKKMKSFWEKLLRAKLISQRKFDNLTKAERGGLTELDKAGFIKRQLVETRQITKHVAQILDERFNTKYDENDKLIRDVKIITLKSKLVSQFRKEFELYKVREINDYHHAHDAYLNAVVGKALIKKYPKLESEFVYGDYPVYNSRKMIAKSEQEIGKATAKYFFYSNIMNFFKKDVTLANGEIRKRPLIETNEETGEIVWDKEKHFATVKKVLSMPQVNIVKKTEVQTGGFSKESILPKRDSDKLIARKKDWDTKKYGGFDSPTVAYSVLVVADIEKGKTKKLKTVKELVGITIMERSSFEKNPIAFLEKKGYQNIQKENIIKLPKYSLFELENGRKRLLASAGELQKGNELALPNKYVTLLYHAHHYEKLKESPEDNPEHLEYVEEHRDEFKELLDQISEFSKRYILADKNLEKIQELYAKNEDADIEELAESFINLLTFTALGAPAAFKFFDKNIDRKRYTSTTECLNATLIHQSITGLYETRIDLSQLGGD
Briefly: cell_activity; +++; K562, second nick guide SEQ 380; PAM not stated. The method in brief: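 K562 cells (250,000) nucleofected with plasmids for the reverse transcriptase–Cas endonuclease fusion, template RNA introducing an SNP at endogenous HBB, and second nick guide RNA (250 ng each). Genomic DNA harvested at day 3; percent amplicons with intended edit measured by targeted amplicon sequencing.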

Some results are limits rather than exact numbers.

B1: HBB template RNA ; HBB protospacer (ssRNA ; dsDNA)
RNA: CAUGGUGCACCUGACUCCUGGUUUUAGAGCUAGAAAUAGCAAGUUAAAAUAAGGCUAGUCCGUUAUCAACUUGAAAAAGUGGCACCGAGUCGGUGCACGGCAGACUUCUCUGCCGGAGUCAGGUGC
DNA 1: CATGGTGCACCTGACTCCTG
DNA 2: CAGGAGTCAGGTGCACCATG
With B1, the activity was ≥ 100 % of reference.

Source of the values: patent publication US20250092426, “CAS ENDONUCLEASES AND RELATED METHODS” (Flagship Pioneering Innovations VII, LLC, published 2025).
